T1: Aurora B (endogenous), Q96GD4
T1 chain: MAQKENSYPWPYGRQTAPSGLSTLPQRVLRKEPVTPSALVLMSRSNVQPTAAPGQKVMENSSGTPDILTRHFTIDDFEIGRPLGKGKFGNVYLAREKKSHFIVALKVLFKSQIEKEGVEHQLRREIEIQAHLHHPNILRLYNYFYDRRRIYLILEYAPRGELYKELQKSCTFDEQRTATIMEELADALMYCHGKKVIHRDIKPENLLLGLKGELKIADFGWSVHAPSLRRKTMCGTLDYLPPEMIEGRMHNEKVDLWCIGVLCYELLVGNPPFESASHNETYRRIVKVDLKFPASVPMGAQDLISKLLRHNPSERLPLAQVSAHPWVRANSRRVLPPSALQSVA

T2: Borealin (endogenous), Q53HL2
T2 chain: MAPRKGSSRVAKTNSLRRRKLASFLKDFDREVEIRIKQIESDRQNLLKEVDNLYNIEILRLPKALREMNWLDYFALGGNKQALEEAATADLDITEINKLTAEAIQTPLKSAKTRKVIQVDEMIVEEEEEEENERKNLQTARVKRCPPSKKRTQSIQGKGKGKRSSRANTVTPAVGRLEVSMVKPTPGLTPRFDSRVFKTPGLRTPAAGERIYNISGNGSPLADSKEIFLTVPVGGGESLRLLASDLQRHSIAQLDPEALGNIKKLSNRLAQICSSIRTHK

B1: Sgo1_(130–280)-LacI-GFP, Q5FBB7 V188A; S189A; V190A; R191A (protein)
chain: RNLFVKDLPQIPLEETELPGQGESFQIEDQIPTIPQDTLGVDFDSGEAKSTDNVLPRTAAAASSLKKHCNSICQFDSLDDFETSHLAGKSFEFERVGFLDPLVNMHIPENVQHNACQWSKDQVNLSPKLIQPGTFTKTKEDILESKSEQTK
B2: Sgo1_(159–240)-LacI-GFP, Q5FBB7 V188A; S189A; V190A; R191A (protein)
chain: QIPTIPQDTLGVDFDSGEAKSTDNVLPRTAAAASSLKKHCNSICQFDSLDDFETSHLAGKSFEFERVGFLDPLVNMHIPENV

What was measured:
[1] = biological target: T1, Aurora B (endogenous), Q96GD4; experiment: LacO-LacI tethering assay, immunofluorescence in U-2 OS-LacO Haspin CM cells; details: chain shown with the change, red bar = mean, read off a plot
[2] = biological target: T2, Borealin (endogenous), Q53HL2; experiment: as above; details: chain shown with the change, n = 21 (mutant), n = 22 (parent), red bar = mean, read off a plot

| Binder | response ([1]; n = 22 (mutant), n = 20 (parent), parent: est. 0.85) [a.u.] | response ([2]; parent: est. 1.2) [a.u.] | response ([1]; n = 23 (mutant), n = 10 (parent), parent: est. 1.2) [a.u.] | response ([2]; parent: est. 1.4) [a.u.] |
| --- | --- | --- | --- | --- |
| B1 | 0.1 | 0.18 | – | – |
| B2 | – | – | 0.15 | 0.25 |

From PMC9253516
